We go through two substances from publication PMC10187114.

In experiment [1] the target is VPS29 (recombinant) (human) (UniProt Q9UBQ0). In words: ITC; VPS35L peptides at 600 μM titrated into 20 μM VPS29, 100 mM Tris pH 7.4, 300 mM NaCl, 25°C, single site model. (In general: Isothermal titration calorimetry measures the heat released or taken up as one component is titrated into another.)
The next experiment addresses VPS35L (human) (UniProt Q7Z3J2). As to the kind of experiment: SEC; Retriever co-expressed in insect cells, affinity purification then size-exclusion chromatography (Superdex200, 25 mM HEPES pH 8.0, 300 mM NaCl, 2 mM β-mercaptoethanol, 4°C). (In general: Size exclusion chromatography separates by hydrodynamic size, large species first.)

Broadly, the Kd is the constant that tells how readily two partners part at equilibrium. For “VPS35L (28-37) peptide (from UniProt Q7Z3J2 28-37)”, the Kd in experiment [1] came to 6.8 µM.

What is called stoichiometry N is a count of units in the complex or per binding partner. “3xStrepII-VPS26C (from UniProt O14972 1-297) (natural protein)”: the stoichiometry N with VPS35L (human) is 1.
